In paper PMC5448812, “Distinct DNA-binding surfaces in the ATPase and linker domains of MutLγ determine its substrate specificities and exert separable functions in meiotic recombination and mismatch repair” (PLoS Genetics, 2017):

Substrate: Nc1ncnc2c1ncn2[C@@H]1O[C@H](COP(=O)(O)OP(=O)(O)OP(=O)(O)O)[C@@H](O)[C@H]1O
Assay: ATP hydrolysis, thin layer chromatography of [α-32P]-ADP
Format: biochemical, Saccharomyces cerevisiae
Conditions: 200 nM MutLγ, 25 mM Tris-HCl pH 7.5, 5 mM MgCl2, 1 mg/ml BSA, 30°C, no DNA, labelled compound as tracer (33 nM [α-32P]-ATP plus cold ATP), both subunits carry a GHKL ATPase domain, single apparent Km

B1: MutLγ (Mlh1-Mlh3) (Saccharomyces cerevisiae S288C) (protein)
chain 1: MSLRIKALDASVVNKIAAGEIIISPVNALKEMMENSIDANATMIDILVKEGGIKVLQITDNGSGINKADLPILCERFTTSKLQKFEDLSQIQTYGFRGEALASISHVARVTVTTKVKEDRCAWRVSYAEGKMLESPKPVAGKDGTTILVEDLFFNIPSRLRALRSHNDEYSKILDVVGRYAIHSKDIGFSCKKFGDSNYSLSVKPSYTVQDRIRTVFNKSVASNLITFHISKVEDLNLESVDGKVCNLNFISKKSISPIFFINNRLVTCDLLRRALNSVYSNYLPKGNRPFIYLGIVIDPAAVDVNVHPTKREVRFLSQDEIIEKIANQLHAELSAIDTSRTFKASSISTNKPESLIPFNDTIESDRNRKSLRQAQVVENSYTTANSQLRKAKRQENKLVRIDASQAKITSFLSSSQQFNFEGSSTKRQLSEPKVTNVSHSQEAEKLTLNESEQPRDANTINDNDLKDQPKKKQKLGDYKVPSIADDEKNALPISKDGYIRVPKERVNVNLTSIKKLREKVDDSIHRELTDIFANLNYVGVVDEERRLAAIQHDLKLFLIDYGSVCYELFYQIGLTDFANFGKINLQSTNVSDDIVLYNLLSEFDELNDDASKEKIISKIWDMSSMLNEYYSIELVNDGLDNDLKSVKLKSLPLLLKGYIPSLVKLPFFIYRLGKEVDWEDEQECLDGILREIALLYIPDMVPKVDTSDASLSEDEKAQFINRKEHISSLLEHVLFPCIKRRFLAPRHILKDVVEIANLPDLYKVFERC
chain 2: MSQHIRKLDSDVSERLKSQACTVSLASAVREIVQNSVDAHATTIDVMIDLPNLSFAVYDDGIGLTRSDLNILATQNYTSKIRKMNDLVTMKTYGYRGDALYSISNVSNLFVCSKKKDYNSAWMRKFPSKSVMLSENTILPIDPFWKICPWSRTKSGTVVIVEDMLYNLPVRRRILKEEPPFKTFNTIKADMLQILVMHPMISLNVQYTDKLRINTEVLFRSKNITEGLTKHQQMSQVLRNVFGAIIPPDMLKKVSLKFNEYQIEGIISKMPVGLKDLQFIYINGRRYADSAFQGYVDSLFQAQDFGEKGMSLLKTKSVGKPYRSHPVFILDVRCPQTIDDLLQDPAKKIVKPSHIRTIEPLIVKTIRSFLTFQGYLTPDKSDSSFEIVNCSQKTATLPDSRIQISKRNQVLNSKMKIARINSYIGKPAVNGCRINNSTINYEKIKNIRIDGQKSRLRNKLSSRPYDSGFTEDYDSIGKTITDFSISRSVLAKYEVINQVDKKFILIRCLDQSIHNCPLLVLVDQHACDERIRLEELFYSLLTEVVTGTFVARDLKDCCIEVDRTEADLFKHYQSEFKKWGIGYETIEGTMETSLLEIKTLPEMLTSKYNGDKDYLKMVLLQHAHDLKDFKKLPMDLSHFENYTSVDKLYWWKYSSCVPTVFHEILNSKACRSAVMFGDELTRQECIILISKLSRCHNPFECAHGRPSMVPIAELK
notes: full-length heterodimer (175 kDa), N-terminal 6xHis-2xFlag tag kept on Mlh1 (Mlh3 untagged), co-expressed from baculoviruses in Sf9 cells
B1 showed a Km of 64 ± 13 µM.
